Test results as given in US6150139A, “Bacterocide compositions and their preparation from micrococcus varians” (priority 1995, dated 2000).

Key:
[1] = tested on: Lactobacillus helveticus (N 2); assay: resistance to pH, agar well test; assay type: physicochemical; details: readjusted to pH 6-7
Gram-negative bacteria = assay: agar well test, inhibition spectrum, Gram-negative bacteria; assay type: cell-based; details: results of Table V
Description: The inhibition spectrum of the supernatant is thus determined.

[2] = tested on: Lactobacillus helveticus (N 2); assay: inactivation by enzymes, agar well test; assay type: physicochemical; details: for Inhibition halo diameter after enzyme treatment: 60 min
[3] = tested on: Lactobacillus bulgaricus (YL 5); assay: inactivation by enzymes, agar well test; assay type: physicochemical; details: 60 min, halo after treatment
[4] = tested on: Lactobacillus helveticus (N 2); assay: resistance to heat, agar well test; assay type: physicochemical; details: for Inhibition halos (mm): 100 °C, pH 7
[5] = tested on: Lactobacillus helveticus (N 2); assay: resistance to heat and to pH, agar well test; assay type: physicochemical; details: for Inhibition halo (mm): 115 °C
[6] = tested on: strain of Lactococcus lactis which produces lacticin 481; assay: inhibition spectrum test on the lacticin 481 producer; assay type: cell-based
Description: When the strain of Lactococcus lactis which produces lacticin 481 is inoculated in the presence of a […] extract, as previously described in the inhibition spectrum test, the growth of the said strain is seen to be inhibited. The strain of Lactococcus lactis which produces lacticin 481 is immune to its own bacteriocin, lacticin 481, but is not immune to the […] produced by either of the two Micrococcus varians strains according to the present invention.

[7] = Catalase (SIGMA C-10) 5 mg/ml, incubation 30 °C
[8] = Ficin (SIGMA F-3266) 5 mg/ml, incubation 37 °C
[9] = Pronase E (SIGMA P-8038) 5 mg/ml, incubation 37 °C
[10] = Proteinase K (MERCK 1000 144) 5 mg/ml, incubation 37 °C

Substance: variacin: bacteriocin from Micrococcus varians strains CNCM I-1586 and CNCM I-1587, amino acid sequence SEQ ID NO:1 (GSGVIPTISHECHMNSFQFVFTCCS)
- Inhibition halos ([1]; pH 2, 37 °C for 60 min): 27 mm
- Inhibition halos ([1]; pH 4, 37 °C for 60 min): 27 mm
- Inhibition halos ([1]; pH 6, 37 °C for 60 min): 27 mm
- Inhibition halos ([1]; pH 8, 37 °C for 60 min): 27 mm
- Inhibition halos ([1]; pH 10, 37 °C for 60 min): 27 mm
- inhibitory effect on the growth of Gram-negative bacteria (Gram-negative bacteria): does not exert any inhibitory effect
- Inhibition halo diameter after enzyme treatment [2, 7]: 27 mm
- Inhibition halo diameter after enzyme treatment [2, 8]: 0 mm
- Inhibition halo diameter after enzyme treatment [2, 9]: 0 mm
- Inhibition halo diameter after enzyme treatment [2, 10]: 0 mm
- effect of proteolytic enzymes on bactericidal activity ([2]; all proteolytic enzymes of Tables I and II, indicator strains N 2 and YL 5): suppress the bactericidal activity
- influence of catalase on bactericidal activity ([2]; two indicator strains N 2 and YL 5): not found to exert any influence
- Inactivation (mm) [3, 7]: 27 mm
- Inactivation (mm) [3, 8]: 0 mm
- Inactivation (mm) [3, 9]: 0 mm
- Inactivation (mm) [3, 10]: 0 mm
- Inhibition halos (mm) ([4]; incubation time 15 min): 27 mm
- Inhibition halos (mm) ([4]; incubation time 30 min): 27 mm
- Inhibition halos (mm) ([4]; incubation time 60 min): 27 mm
- bactericidal activity after heating ([4]; 60 min incubation at 100 °C): not compromised
- Inhibition halo (mm) ([5]; pH 4, 20 min): 27 mm
- bactericidal activity after pH combined with heat ([5]; pH 4 or 7, combined with an elevated temperature): not compromised
- Inhibition halo (mm) ([5]; pH 7, 20 min): 27 mm

Substance: lacticin 481
- growth of the lacticin 481-producing strain in presence of bacteriocin [6]: immune
